Experimental findings from article PMC7549910 are described below.

The target of experiment [1] is elongation factor Tu (EF-Tu) of M. hyopneumoniae strain 168, endogenous (M. hyopneumoniae (endogenous in strain 168)).
In experiment [2] the target is human factor H (human) (UniProt P08603).
Experiment [3] shares this target. The experiment can be described thus: SPR; BIAcore X100 Plus; factor H amine-coupled to a CM5 chip (712 RU); recombinant EF-Tu 0-14 uM as analyte in HBS-EP (10 mM HEPES, 150 mM NaCl, 3 mM EDTA, 0.05% P20), 30 uL/min, 180 s, 20°C. (SPR reads the build-up and loss of mass on a sensor chip optically.)

Sequence of human factor H (human) (P08603 19-1231): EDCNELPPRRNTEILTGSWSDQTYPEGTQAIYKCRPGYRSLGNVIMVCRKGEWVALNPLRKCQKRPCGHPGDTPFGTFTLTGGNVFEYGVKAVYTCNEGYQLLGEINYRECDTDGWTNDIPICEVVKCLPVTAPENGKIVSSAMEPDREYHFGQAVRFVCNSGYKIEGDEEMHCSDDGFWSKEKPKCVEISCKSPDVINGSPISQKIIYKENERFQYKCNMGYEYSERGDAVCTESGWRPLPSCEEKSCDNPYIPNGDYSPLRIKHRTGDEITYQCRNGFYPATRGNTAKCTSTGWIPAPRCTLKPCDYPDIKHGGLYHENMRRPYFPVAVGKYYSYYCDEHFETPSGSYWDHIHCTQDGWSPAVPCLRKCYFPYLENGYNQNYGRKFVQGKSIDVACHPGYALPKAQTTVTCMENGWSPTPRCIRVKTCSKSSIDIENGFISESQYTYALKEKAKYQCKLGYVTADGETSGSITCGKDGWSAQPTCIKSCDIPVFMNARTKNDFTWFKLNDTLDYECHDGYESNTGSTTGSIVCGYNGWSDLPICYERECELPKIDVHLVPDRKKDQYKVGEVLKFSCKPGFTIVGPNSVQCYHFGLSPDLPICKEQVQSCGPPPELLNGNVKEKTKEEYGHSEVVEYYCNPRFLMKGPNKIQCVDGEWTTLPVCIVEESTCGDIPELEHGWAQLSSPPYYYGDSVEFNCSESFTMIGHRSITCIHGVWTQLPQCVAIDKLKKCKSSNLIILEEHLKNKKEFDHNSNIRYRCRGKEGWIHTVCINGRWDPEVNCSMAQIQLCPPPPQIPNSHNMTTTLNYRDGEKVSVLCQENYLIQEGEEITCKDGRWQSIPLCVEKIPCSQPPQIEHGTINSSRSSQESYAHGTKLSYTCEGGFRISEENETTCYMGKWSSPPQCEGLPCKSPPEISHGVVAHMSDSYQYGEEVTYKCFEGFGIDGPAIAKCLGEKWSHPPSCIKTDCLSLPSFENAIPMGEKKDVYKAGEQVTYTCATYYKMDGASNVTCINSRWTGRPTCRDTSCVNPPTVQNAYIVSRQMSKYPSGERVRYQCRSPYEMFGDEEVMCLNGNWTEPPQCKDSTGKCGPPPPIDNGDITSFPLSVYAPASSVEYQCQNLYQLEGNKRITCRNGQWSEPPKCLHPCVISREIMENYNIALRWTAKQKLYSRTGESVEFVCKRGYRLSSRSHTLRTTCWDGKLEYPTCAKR
Sequence of elongation factor Tu (EF-Tu) of M. hyopneumoniae strain 168, endogenous (M. hyopneumoniae (endogenous in strain 168)) (Q4A7K0 whole entry): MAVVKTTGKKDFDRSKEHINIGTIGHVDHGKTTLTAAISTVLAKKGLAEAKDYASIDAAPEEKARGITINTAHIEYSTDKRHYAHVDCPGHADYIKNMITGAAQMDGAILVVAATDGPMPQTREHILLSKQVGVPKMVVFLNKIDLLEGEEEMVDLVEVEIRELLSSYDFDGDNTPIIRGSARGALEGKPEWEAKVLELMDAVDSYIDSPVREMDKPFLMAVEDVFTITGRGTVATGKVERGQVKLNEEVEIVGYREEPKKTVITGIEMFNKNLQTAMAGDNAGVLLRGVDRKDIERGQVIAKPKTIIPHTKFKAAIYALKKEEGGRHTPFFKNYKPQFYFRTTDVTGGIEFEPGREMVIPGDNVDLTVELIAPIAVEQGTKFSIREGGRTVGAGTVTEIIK
Sequence of recombinant full-length EF-Tu of M. hyopneumoniae (Q4A7K0 whole entry): as above
Sequence of elongation factor Tu (EF-Tu) of M. hyopneumoniae strain 168, endogenous (natural protein) (Q4A7K0 whole entry): as above
Sequence of human factor H (P08603 19-1231): as the sequence (P08603 19-1231) above

In experiment [1], “human factor H (from UniProt P08603 19-1231) (natural protein)” had a C3 fragment deposition on M. hyopneumoniae cells by flow cytometry, anti-EF-Tu antibodies against preimmune sera, with factor H of 8 fold.
With “elongation factor Tu (EF-Tu) of M. hyopneumoniae strain 168, endogenous (natural protein)”, the binding of M. hyopneumoniae cells to factor H immobilised on 96-well plates (qPCR count) after preincubation with anti-EF-Tu polyclonal antibodies against preimmune serum with human factor H (human) [2] was determined as 47.7%.
The term Kd denotes the free concentration of one partner at which half of the binding sites on the other are occupied at equilibrium, for simple one-to-one binding. For the substance “recombinant full-length EF-Tu of M. hyopneumoniae (from UniProt Q4A7K0 1-402) (natural protein; other documents disagree on this pair)”, in the experiment with human factor H (human) [3], the equilibrium dissociation constant (Kd) was determined as 7.83 µM.
